Reference: paper PMC13064845 (2025)

Biological target: thrombospondin-1 (TSP1), immobilised in the Biacore analysis (UniProt P35441 19-1170)
Assay: SPR

thrombospondin-1 (TSP1), immobilised in the Biacore analysis, sequence (P35441 19-1170): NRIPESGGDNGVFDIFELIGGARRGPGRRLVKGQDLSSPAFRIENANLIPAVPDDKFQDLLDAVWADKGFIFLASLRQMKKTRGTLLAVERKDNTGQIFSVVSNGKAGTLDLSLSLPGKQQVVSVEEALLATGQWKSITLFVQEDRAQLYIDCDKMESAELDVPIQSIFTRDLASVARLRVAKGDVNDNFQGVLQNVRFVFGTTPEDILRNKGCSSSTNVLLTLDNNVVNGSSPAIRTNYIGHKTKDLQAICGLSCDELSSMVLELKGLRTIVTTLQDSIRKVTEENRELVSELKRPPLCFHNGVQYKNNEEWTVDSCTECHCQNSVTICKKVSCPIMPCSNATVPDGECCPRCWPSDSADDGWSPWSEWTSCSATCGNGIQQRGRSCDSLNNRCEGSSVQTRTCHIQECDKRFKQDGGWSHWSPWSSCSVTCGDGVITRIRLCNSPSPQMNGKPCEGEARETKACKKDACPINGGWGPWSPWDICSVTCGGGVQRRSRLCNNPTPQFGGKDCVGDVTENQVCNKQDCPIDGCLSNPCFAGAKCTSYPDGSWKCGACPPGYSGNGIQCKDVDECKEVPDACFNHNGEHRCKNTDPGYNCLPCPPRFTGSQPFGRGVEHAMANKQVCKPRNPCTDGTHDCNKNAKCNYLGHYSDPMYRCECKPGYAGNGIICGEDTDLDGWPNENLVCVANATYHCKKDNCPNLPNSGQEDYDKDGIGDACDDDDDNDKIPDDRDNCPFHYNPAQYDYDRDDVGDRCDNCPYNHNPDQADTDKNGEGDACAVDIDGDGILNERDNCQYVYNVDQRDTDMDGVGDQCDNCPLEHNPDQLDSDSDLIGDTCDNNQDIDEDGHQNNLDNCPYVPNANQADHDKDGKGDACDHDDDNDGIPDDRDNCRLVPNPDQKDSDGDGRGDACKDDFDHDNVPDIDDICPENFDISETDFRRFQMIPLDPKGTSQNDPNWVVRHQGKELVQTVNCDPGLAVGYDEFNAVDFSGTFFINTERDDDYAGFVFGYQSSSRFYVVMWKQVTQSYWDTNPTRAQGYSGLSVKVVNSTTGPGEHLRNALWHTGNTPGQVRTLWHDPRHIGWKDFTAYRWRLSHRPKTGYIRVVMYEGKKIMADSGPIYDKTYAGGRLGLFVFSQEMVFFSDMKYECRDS

Kd: 29.9 nM
B1: fibulin-7 (FBLN7), analyte of the Biacore analysis (natural protein)
chain: QSCLNKQQLLTTIRQLQQLLKGQETRFTEGIRNMKSRLAALQNTVNKMTPDAPPVSCPALEAPPDGKKFGSKYLVDHEVYFTCNPGFQLVGPSSVVCLANGSWTGEQPRCRDISECSSQPCHNGGTCVEGINHYRCICPPGKTGNRCQHQTQAAAPDGGEAGDPAFSRAPRCAQVEREQHCSCEAGFHLSSTTGGHSVCQDVNECEIYGQKGRPRLCMHACVNTPGSYRCTCPSGYRILADGKSCEDVDECAGPQHMCPRGTTCINTGGGFQCVNPECPEGSGNISYVKTSPFQCERNPCPMDSRPCRHLPKTISFHYLSLPSKLKTPITLFRMATASIPGHPGPNSLRFGIVGGNSRGHFVMQRSDRQTGELILTQTLEGPQTLEVDVDMSEYLERSFQANHVSKVTIFVSRYDF
